Among the data in paper PMC10855902 (International Journal of Molecular Sciences, 2024) are Kd values, retold here.

What all share (details): both partners purified
The target of assay [1] is T1, Recombinant human EGFR protein (Active) (ab155639) (human, UniProt P00533 25-645, labelled with RED-tris-NTA 2nd Generation dye).
T1 construct: epidermal growth factor receptor (EGFR, ErbB-1), human, recombinant; also called EGF receptor; ErbB-1; source: bought: Abcam (ab155639), recombinant
The assay is described as follows: MST; RED-tris-NTA-labelled EGFR 25 nM, ligand in a dilution series in PBS-T; assay concentration of the ligand not stated for the values printed in running text.

The target in assay [2] is T1, Recombinant human EGFR protein (Active) …. Put plainly: MST; RED-tris-NTA-labelled EGFR 25 nM, ligand in a 16-step 1:1 dilution series in PBS-T, 30 min at room temperature; assay concentration of the ligand 5 mM.
For assay [3] the target is unchanged. Put plainly: MST; RED-tris-NTA-labelled EGFR 25 nM, ligand in a 16-step 1:1 dilution series in PBS-T, 30 min at room temperature; assay concentration of the ligand 500 μM.
For assay [4] the target is unchanged. Put plainly: MST; RED-tris-NTA-labelled EGFR 25 nM, ligand in a 16-step 1:1 dilution series in PBS-T, 30 min at room temperature; assay concentration of the ligand 2.5 mM.
Assay [5] has the same target. Put plainly: MST; RED-tris-NTA-labelled EGFR 25 nM, ligand in a 16-step 1:1 dilution series in PBS-T, 30 min at room temperature; assay concentration of the ligand 10 μM.
The target is the same in assay [6]. The assay is described as follows: MST; RED-tris-NTA-labelled EGFR 25 nM, ligand in a 16-step 1:1 dilution series in PBS-T, 30 min at room temperature; assay concentration of the ligand 250 μM.
Assay [7] shares this target. The assay is described as follows: MST; RED-tris-NTA-labelled EGFR 25 nM, ligand in a 16-step 1:1 dilution series in PBS-T, 30 min at room temperature; assay concentration of the ligand 6.02 mM.
For assay [8] the target is unchanged. Put plainly: MST; RED-tris-NTA-labelled EGFR 25 nM, ligand in a 16-step 1:1 dilution series in PBS-T, 30 min at room temperature; assay concentration of the ligand 50 μM.
For assay [9] the target is unchanged. The assay is described as follows: MST; RED-tris-NTA-labelled EGFR 25 nM, ligand in a 16-step 1:1 dilution series in PBS-T, 30 min at room temperature; assay concentration of the ligand 100 μM.
Assay [10] has the same target. The assay is described as follows: MST; RED-tris-NTA-labelled EGFR 25 nM, ligand in a 16-step 1:1 dilution series in PBS-T, 30 min at room temperature; assay concentration of the ligand 10 mM.
Assay [11] has the same target. The assay is described as follows: MST; RED-tris-NTA-labelled EGFR 25 nM, ligand in a 16-step 1:1 dilution series in PBS-T, 30 min at room temperature; assay concentration of the ligand 1 mM.
Assay [12] shares this target. The assay is described as follows: MST; RED-tris-NTA-labelled EGFR 25 nM, ligand in a 16-step 1:1 dilution series in PBS-T, 30 min at room temperature; assay concentration of the ligand 141 μM.
Assay [13] shares this target. Put plainly: MST; RED-tris-NTA-labelled EGFR 25 nM, ligand in a 16-step 1:1 dilution series in PBS-T, 30 min at room temperature; assay concentration of the ligand 705 μM.
Assay [14] shares this target. Put plainly: MST; RED-tris-NTA-labelled EGFR 25 nM, ligand in a 16-step 1:1 dilution series in PBS-T, 30 min at room temperature; assay concentration of the ligand 350 μM.
Assay [15] has the same target. The assay is described as follows: MST; RED-tris-NTA-labelled EGFR 25 nM, ligand in a 16-step 1:1 dilution series in PBS-T, 30 min at room temperature; assay concentration of the ligand 3 mM.
The target is the same in assay [16]. The assay is described as follows: MST; RED-tris-NTA-labelled EGFR 25 nM, ligand in a 16-step 1:1 dilution series in PBS-T, 30 min at room temperature; assay concentration of the ligand 463 μM.

B1: EGF fragment 38–43 (IGERCQ) (peptide)
peptide: IGERCQ
notes: EGF, human, residues 38-43; numbers count on: the mature protein; source: synthetic peptide (SPPS, Fmoc; crude, without preparative HPLC)
The term Kd denotes the constant that tells how readily two partners part at equilibrium. B1: the dissociation constant (Kd) was 0.1 to 1.8 µM in assay [1]; 0.157 µM in assay [2]; 0.154 µM in assay [3]; 0.108 µM in [4]; 0.709 µM in assay [5].

B2: EGF fragment 10–15 (HDGYCL) (peptide)
peptide: HDGYCL
notes: EGF, human, residues 10-15; numbers count on: the mature protein; also called 10–15 EGF fragment; source: synthetic peptide (SPPS, Fmoc; crude, without preparative HPLC)
In the case of B2, the Kd in [6] was 48.4 µM; in assay [2], 663 µM; in assay [7], 715 µM; in assay [8], 0.0664 µM; in [9], 0.0174 µM; in assay [4], 431 µM. In assay [10], the Kd came to 533 µM.

B3: EGF fragment 34–47 (VVGYIGERCQYRDL) (peptide)
peptide: VVGYIGERCQYRDL
notes: EGF, human, residues 34-47; numbers count on: the mature protein; source: synthetic peptide (SPPS, Fmoc; crude, without preparative HPLC)
B3: the dissociation constant (Kd) in assay [11] is 0.53 µM; in assay [12], 4.62 µM; in [8] it was 5.92 µM; in assay [13], 2.17 µM; in [14], 1.21 µM.

B4: EGF fragment 10–22 (HDGYCLHDGVCMY) (peptide)
peptide: HDGYCLHDGVCMY
notes: EGF, human, residues 10-22; numbers count on: the mature protein; source: synthetic peptide (SPPS, Fmoc; crude, without preparative HPLC)
Regarding B4, the equilibrium dissociation constant (Kd) in assay [11] came out at 35.9 µM; in assay [8] it was 0.0705 µM; in assay [9], 8.2 µM; in assay [15], 416 µM; in [16] it was 21.2 µM.
